Test results reported in US8455435B2, “Remedies for ischemia” (Ludwig-Maximilians-Universitat Munchen, priority 2006, dated 2013).
“Also recorded” adds a separate entry of the source.

Legend:
CXCR4 = CXCR4 (Mus musculus, UniProt P70658); conditions: 48 hours after MI; cited from earlier work
[1] = system: CD45+/CD34+ and CD34+/CXCR4+ cells in the heart; assay: Flow cytometry of non myocyte cardiac cells after MI; type: in vivo, C57BL/6 and CD26 k.o. mice; conditions: AMD3100 1.25 mg/kg i.p. in G-CSF treated CD26 k.o. and G-CSF-DipA animals
Description: FIGS. 27A, 27C, 27E, Tab. S 3A; Nr. 2: FIGS. 27B, 27D, 27F, Tab. S 3B). Animal care and all experimental procedures were performed in strict accordance to the Guide for the Care and Use of Laboratory Animals published by the US National Institutes of Health (NIH publication No. 85-23, revised 1996). Mice were randomly divided into the following groups: […] G-CSF and/or Diprotin A treatment was initiated immediately after the surgical procedure. Cardiac cells from sham operated and infarcted hearts of wt and CD26 k.o. mice were analyzed 48 hours after MI (n=6). Therefore, a “myocyte-depleted” cardiac cell population was prepared, incubating minced myocardium in 0.1% collagenase IV (Gibco BrL) 30 min at 37° C., lethal to most adult mouse cardiomyocytes (Zhou et al., 2000). Cells were then filtered through a 70-μm mesh. […] Cells were stained with CD45-PerCP, CD34-FITC, CD26-FITC, c-kit-PE, Sca-1-PE, CXCR4-PE Flk-1, Flk-PE, CD3-biotin, CD45R/B220-biotin, CD11b-biotin, TER-119-biotin, Ly-6G-biotin Abs (all from BD Pharmingen) and subjected to flow cytometry using […] flow cytometer and Expo32 ADC Xa software (Beckman Coulter). For evaluation of SDF-1-CXCR4 dependent homing, G-CSF stimulated CD26 k.o. mice were treated i.p. with the CXCR4-antagonist AMD3100 (1.25 mg/kg). Cardiac cells were analyzed 8 hours after the last AMD3100 application. Each analysis included 50000 events.

cortical infarct = conditions: permanent middle cerebral artery occlusion; cited from earlier work
infarcted heart = assay: Histology and immunohistochemistry after MI: infarct size, LV wall thickness, CD31+ capillaries (G-CSF, Diprotin A); type: in vivo, C57BL/6 and CD26 k.o. mice
Description: (§1) MI was induced in 10 weeks old male CD26 k.o. or C57BL/6 mice by surgical occlusion of the left anterior descending artery (LAD) as described previously (Deindl et al., 2006). Experiments concerning survival and cardiac function were performed by two different operators (Nr. 1: FIGS. 27A, 27C, 27E, Tab. S 3A; Nr. 2: FIGS. 27B, 27D, 27F, Tab. S 3B). Animal care and all experimental procedures were performed in strict accordance to the Guide for the Care and Use of Laboratory Animals published by the US National Institutes of Health (NIH publication No. 85-23, revised 1996).
(§2) Mice were randomly divided into the following groups: Sham operated animals (n=20), infarcted wildtyp (n=20) (wt) receiving either saline (0.9% NaCl), G-CSF (100 μg/kg/d i.p.), Diprotin A (70 μg/kg/twice per day) or G-CSF+Diprotin A and CD26 k.o. animals (n=20) receiving either saline (0.9% NaCl) or G-CSF (100 μg/kg/d) for up to 6 days. G-CSF and/or Diprotin A treatment was initiated immediately after the surgical procedure.
At day 6 (n=6) and day 30 (n=6), hearts were excised. After fixation in 4% phosphate buffered formalin the hearts were cut transversally into 2 mm thick slices and embedded in paraffin. 4 μm thick sections were cut and mounted on positively charged glass slides. […] Infarct size and wall thickness were determined according to Deindl et al. (Deindl et al., 2006).
For immunostaining the following primary antibodies were used: CD45 (rat anti-mouse, BD Pharmingen), CD31 (goat anti-mouse, Santa Cruz), Ki67 (goat anti-mouse, Santa Cruz). […] Apoptotic cells were detected according to Harada et al. 2005 (Harada et al., 2005) using the TUNEL assay (ApopTag, MP Biomedicals). Digital photographs were taken at a magnification of ×400, and 10 random high-power fields (HPF) from the borderzone of each heart sample (n=3) were analyzed. Quantification of blood vessels was assessed by CD31^+ immunohistochemistry in the granulation tissue at the border zone. The numbers of CD31^+ capillaries were quantified from 10 random high power fields (HPF) with 400× magnification.

[2] = system: TUNEL positive cardiomyocytes; assay: TUNEL staining of apoptotic cardiomyocytes in the border zone after MI; type: in vivo, wt and CD26-/- mice; conditions: 2 days after MI, wt and CD26-/- animals, vs saline
Description: as §2
For immunostaining the following primary antibodies were used: CD45 (rat anti-mouse, BD Pharmingen), CD31 (goat anti-mouse, Santa Cruz), Ki67 (goat anti-mouse, Santa Cruz). AEC was used as chromogen. Double staining for CD31 and Ki67 was performed using DAB as additional chromogen (all from Dako). Apoptotic cells were detected according to Harada et al. 2005 (Harada et al., 2005) using the TUNEL assay (ApopTag, MP Biomedicals). Digital photographs were taken at a magnification of ×400, and 10 random high-power fields (HPF) from the borderzone of each heart sample (n=3) were analyzed. Quantification of blood vessels was assessed by CD31^+ immunohistochemistry in the granulation tissue at the border zone. The numbers of CD31^+ capillaries were quantified from 10 random high power fields (HPF) with 400× magnification.

[3] = system: CD45+/CD34+ and CD45+/CD34- cell populations in bone marrow; assay: Flow cytometry of bone marrow cells after PTH or G-CSF in healthy mice; type: in vivo, C57BL/6 mice
Description: (§3) For the experiments healthy age- and sex-matched (male, 8-12 weeks of age) C57BL/6 mice (Charles River) were used. Animal care and all experimental procedures were performed in strict accordance to the German and National Institutes of Health animal legislation guidelines and were approved by the local animal care and use committees.
(§4) Mice were divided into the following groups: 1) administration of saline daily for 6 days, sacrificed at day 7 (n=6). 2) administration of PTH (Bachem) daily for 6 consecutive days (80 μg per kg body weight per day, intraperitoneally), sacrificed at day 7 (n=6). 3) administration of PTH daily for 14 consecutive days, sacrificed at day 15 (n=6). 4) administration of G-CSF (Amgen Biologicals) daily for 5 consecutive days (200 μg per kg body weight per day, intraperitoneally), sacrificed at day 6 (n=6).
(§5) at day 6, 1 ml of peripheral blood was harvested from each mouse by aspirating the carotid artery. Bone marrow cells were obtained by flushing the tibias and femurs from the euthanized mice. Mononuclear cells were separated by density-gradient centrifugation using 1.077 g/mL Histopaque solution (Sigma Chemicals), purified and resuspended in phosphate-buffered saline (PBS) containing 1% bovine serum albumin. Cells were incubated for 40 minutes in the dark at 4° C. with following fluorescein-isothiocyanate (FITC), phycoerythrin (PE), and peridinin-chlorphyll-protein (PerCP) conjugated monoclonal antibodies: CD45-PerCP, C34-FITC, CD31-PE, Sca-1-PE and c-kit-PE (all from BD Pharmingen). Isotype-identical antibodies (BD Pharmingen) served as controls. Cells were analyzed by 3-color flow cytometry using a Coulter® Epics® XL-MCL™ flow cytometer (Beckman Coulter). Each analysis included 20000 events. The absolute number of antigen-positive cells per ml of whole blood was calculated by multiplying the percentage of antigen-positive cells with the total number of mononuclear cells per ml of blood detected by the conventional hematological cell analyzer. The number of lymphocytes together with the number of monocytes comprised the total number of mononuclear cells.

myocardial function = assay: Pressure volume relations four weeks after MI (G-CSF, Diprotin A); type: in vivo, C57BL/6 and CD26 k.o. mice; conditions: day 30, CD26 k.o. mice
Description: as §1, §2
For evaluation of pressure-volume relationships in vivo, mice were anesthetised with thiopental (100 mg/kg, i.p.), intubated and ventilated (MiniVent, HUGO SACHS, Freiburg, Germany). After catheterization via the right carotid artery an impedance-micro manometer catheter (Millar Instruments, Houston, Tex.) was introduced into the left ventricle. Raw conductance volumes were corrected for parallel conductance by the hypertonic saline dilution method as described previously (Zaruba et al., 2008). Heamodynamic measurements as well as data analyses were performed by a blinded person using PVAN analysis software (HUGO SACHS, March, Germany).

CD45+/CD34+ progenitors = assay: FACS of peripheral blood, stem cell mobilization by G-CSF; type: in vivo, C57BL/6 and CD26 k.o. mice; conditions: G-CSF 100 μg/kg/d; wt (+/-Diprotin A) and CD26 k.o. mice vs saline
Description: 10 weeks old CD26 k.o. (n=6) were either treated with G-CSF (100 μg/kg/d) or saline daily for 6 days and or C57BL/6 mice (n=6) were treated with saline, G-CSF, Diprotin A or both daily for 6 days. Cells were separated as described previously (Deindl et al., 2006). The following monoclonal antibodies were used: CD45-PerCP, CD34-FITC, CD31-PE, c-kit-PE, Sca-1-PE, CXCR4-PE, Flk-PE, CD3-biotin, CD45R/B220-biotin, CD11b-biotin, TER-119-biotin, Ly-6G-biotin (all from BD Pharmingen). Matching isotype antibodies (BD Pharmingen) served as controls. Cells were analyzed by 3-color flow cytometry using a Coulter® Epics® XL-MCL™ flow cytometer (Beckman Coulter). Each analysis included 50000 events.

[4] = system: CD45+/CD34+ and CD45+/CD34- cell populations in peripheral blood; assay: Flow cytometry of peripheral blood mononuclear cells after PTH or G-CSF in healthy mice; type: in vivo, C57BL/6 mice; conditions: PTH day 6 and day 14; G-CSF day 6
Description: as §3, §4, §5

myocardial infarction = assay: Survival after MI (Kaplan-Meier; G-CSF, Diprotin A); type: in vivo, C57BL/6 and CD26 k.o. mice
Description: as §1, §2
Results were expressed as mean±s.e.m. Multiple group comparisons were performed by one-way analyses of variance (ANOVA) followed by the Bonferroni procedure for comparison of means. Comparisons between two groups were performed using the unpaired Student's t-test. Data were considered statistically significant at a value of p≦0.05. Mortality was analyzed by the Kaplan-Meier-method.

Chain of CXCR4 (P70658 whole entry): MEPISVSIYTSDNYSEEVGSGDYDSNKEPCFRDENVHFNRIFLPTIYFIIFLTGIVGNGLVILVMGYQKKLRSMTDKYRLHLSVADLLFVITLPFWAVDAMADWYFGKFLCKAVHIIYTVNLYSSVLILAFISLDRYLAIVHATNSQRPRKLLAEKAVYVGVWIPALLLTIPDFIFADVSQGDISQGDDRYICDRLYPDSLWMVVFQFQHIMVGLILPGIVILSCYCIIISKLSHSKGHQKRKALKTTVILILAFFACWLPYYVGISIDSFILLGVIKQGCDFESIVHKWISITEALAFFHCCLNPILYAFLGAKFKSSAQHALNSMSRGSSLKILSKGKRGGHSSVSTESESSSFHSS

Molecule: c1cc(CN2CCCNCCNCCCNCC2)ccc1CN1CCCNCCNCCCNCC1 [AMD3100]
- decrease of bone marrow derived cell recruitment after MI (CXCR4): 64%
- recruitment of CD34+/CXCR4+ cells into the heart after MI [1]: diminished the number; also recorded: reversed the recruitment

Molecule: PTHrP(1-34): parathyroid hormone-related peptide fragment 1-34, SEQ ID NO:7
- decrease of cortical infarct size (cortical infarct): up to 47%

B1: G-CSF: granulocyte colony stimulating factor (Amgen Biologicals) (protein, UniProt P09919 31-207, looked up)
Granulocyte …: TPLGPASSLPQSFLLKCLEQVRKIQGDGAALQEKLVSECATYKLCHPEELVLLGHSLGIPWAPLSSCPSQALQLAGCLSQLHSGLFLYQGLLQALEGISPELGPTLDTLQLDVADFATTIWQQMEELGMAPALQPTQGAMPAFASAFQRRAGGVLVASHLQSFLEVSYRVLRHLAQP
- number of CD31+ capillaries at the infarct borderzone (infarcted heart; 6 days after MI, CD26 k.o. animals): Increased neovascularization; also recorded: significantly increased number
- size of LV infarction (scar tissue) (infarcted heart; day 30, CD26 k.o. animals): smaller
- thickness of the left ventricular wall (infarcted heart; day 30, CD26 k.o. animals): significantly improved thickness; also recorded: significantly ameliorated
- number of TUNEL positive cardiomyocytes in the border zone [2]: decreased apoptotic cell death; also recorded: reduced the number
- increase of CD45+/CD34- cells in bone marrow compared to saline treated mice ([3]; G-CSF treatment, p<0.001): 18.9%
- subtypes of CD45+/CD34- cells in bone marrow ([3]; PTH day 6, G-CSF): significantly decreased
- subtypes of CD45+CD34+ cells in bone marrow ([3]; PTH day 6 or day 14, G-CSF vs control group): significant decrease
- arterial afterload (arterial elastance) (myocardial function): markedly reduced
- diastolic heart function (isovolumetric relaxation parameter Tau) (myocardial function): improved diastolic heart function
- ventricular dilation measured by enddiastolic volumes (myocardial function): attenuated ventricular dilation
- mobilization of CD45+/CD34+ progenitors in peripheral blood (CD45+/CD34+ progenitors): significantly increased mobilization
- subtypes of CD45+/CD34+ and CD45+/CD34- cells in peripheral blood [4]: significant increase
- survival rate (myocardial infarction; CD26 k.o. mice): 75%
- survival rate (myocardial infarction; wt animals): 55%
